Source: publication PMC7144274

Target: soluble MERTK ectodomain (MERTK^ED-His)
Experiment: SPR; Biacore T200, room temperature; […]; HBS-EP (10 mM HEPES pH 7.4, 150 mM NaCl, 0.05% Tween 20)

“CSFV E2 ectodomain (E2^ED-His) (domain or fragment)” showed a Kd of 1.63 µM.
